# According to publication PMC11284791, “Ribosome External Electric Field Regulates Metabolic Enzyme Activity: The RAMBO Effect” (The Journal of Physical Chemistry. B, 2024):
# Target: the molecule itself
# Test: cross-linking; His-TPI alone with 2 mM BS(PEG)5; 10 mM sodium phosphate pH 7.5, 100 mM NaCl, 10 mM MgCl2, RT, 30 min; SDS-PAGE
protein,measurement,value
"C-terminal His-tagged triosephosphate isomerase from G. gallus (enzyme, UniProt P00940 1-248, looked up, Triosephosphate isomerase, G. gallus, 248 residues, as m1, with a C-terminal His tag; also called His-TPI; His-tagged TPI; source: E. coli BL21 (DE3), pET-21a(+)-His-TPI, purified (Ni-NTA); not shown: His tag, C-terminal, kept) MAPRKFFVGGNWKMNGDKKSLGELIHTLNGAKLSADTEVVCGAPSIYLDFARQKLDAKIGVAAQNCYKVPKGAFTGEISPAMIKDIGAAWVILGHSERRHVFGESDELIGQKVAHALAEGLGVIACIGEKLDEREAGITEKVVFEQTKAIADNVKDWSKVVLAYEPVWAIGTGKTATPQQAQEVHEKLRGWLKSHVSDAVAQSTRIIYGGSVTGGNCKELASQHDVDGFLVGGASLKPEFVDIINAKH",stoichiometry N,2
